Assay results taken from patent US20250295799A1 (Zymeworks, published 2025).
Changes are numbered by the printed parent chain.

B1: v40203, H18L6_LC_G34D mAb (antibody, human IgG1, kappa, V domains shown)
VH: QVQLVQSGAEVKKPGSSVKVSCKASGYTFTDYEMHWVKQAPGHGLEWIGAIDPETGDTAYNQKFKGKATLTADTSTSTAYMELSSLRSEDTAVYYCTRYFSFAYWGQGTLVTVSS
VL: EIVLTQSPATLSLSPGERATISCRSSQSLRHSNDNTYLQWYQQKPGQAPRLLIYKVSNRFSGVPARFSGSGSGTDFTLTISSLEPEDFAVYFCYQSKHVPYTFGGGTKVEIKR
B2: v40204, H18L6_LC_G34E mAb (antibody, human IgG1, kappa, V domains shown)
VH: B1 VH
VL: B1 VL with D34E
notes: no number given for this variant
B3: v40205, H18L6_LC_G34H mAb (antibody, human IgG1, kappa, V domains shown)
VH: B1 VH
VL: B1 VL with D34H
notes: as for B2
B4: v40212, H18L6_LC_G34A mAb (antibody, human IgG1, kappa, V domains shown)
VH: B1 VH
VL: B1 VL with D34A
notes: as for B2
B5: v40214, H18L6_LC_N33T mAb (antibody, human IgG1, kappa, V domains shown)
VH: B1 VH
VL: B1 VL with N33T, D34G
notes: as for B2
B6: v40206, H18L6_LC_G34R mAb (antibody, human IgG1, kappa, V domains shown)
VH: B1 VH
VL: B1 VL with D34R
B7: v40213, H18L6_LC_N33E mAb (antibody, human IgG1, kappa, V domains shown)
VH: B1 VH
VL: B1 VL with N33E, D34G
notes: as for B2
B8: v40210, H18L6_LC_G34S mAb (antibody, human IgG1, kappa, V domains shown)
VH: B1 VH
VL: B1 VL with D34S
notes: as for B2
B9: v40209, H18L6_LC_G34T mAb (antibody, human IgG1, kappa, V domains shown)
VH: B1 VH
VL: B1 VL with D34T
notes: as for B2
B10: v40208, H18L6_LC_G34Q mAb (antibody, human IgG1, kappa, V domains shown)
VH: B1 VH
VL: B1 VL with D34Q
B11: v40211, H18L6_LC_G34V mAb (antibody, human IgG1, kappa, V domains shown)
VH: B1 VH
VL: B1 VL with D34V
notes: as for B2
B12: v40207, H18L6_LC_G34K mAb (antibody, human IgG1, kappa, V domains shown)
VH: B1 VH
VL: B1 VL with D34K

The binders below were run against T1, recombinant human GPC3 (glypican-3) (human, UniProt P51654 25-559) (assay: SPR (Biacore T200), antibody captured by anti-Fc, GPC3 injected, single-cycle kinetics, 1:1 fit; average).
T1 construct: also called huGPC3; hGPC3
Experimental: (§1) CM5 Series S sensor chip, Biacore™ amine coupling kit (NHS, EDC and 1 M ethanolamine), and 10 mM sodium acetate buffers were purchased from Cytiva Life Sciences (Mississauga, ON, Canada). PBS running buffer with 0.05% Tween20 (PBST) was purchased from Teknova Inc. (Hollister, CA). Antigens: recombinant human and cynomolgus GPC3 was purchased from ACROBiosystems (Newark, DE) and SEC purified on a Superdex 200 10/300 GL column (Cytiva) in PBST running buffer at 0.8 mL/min.
(§2) Screening of the antibodies for binding to GPC3 antigen was conducted via anti-Fc capture of antibodies, followed by the injection of five concentrations of GPC3. The anti-Fc surface was prepared on a CM5 Series S sensor chip by standard amine coupling methods as described by the manufacturer (Cytiva Life Sciences, Mississauga, ON, Canada). […] Approximately 150-400 RUs of each antibody (5-20 μg/mL) were captured on the goat anti-human IgG surface by injecting at 10 μL/min for 60s. Using single-cycle kinetics, five concentrations of a two-fold dilution series of human or cynomolgus GPC3 starting at 40 nM, 20 nM, 10 nM, or 5 nM depending on the antibody, with a blank buffer control were injected at 20 μL/min for 180s of contact time, followed by 180 s dissociation phase, resulting in sensorgrams with a buffer blank reference. The anti-Fc surface was regenerated to prepare for the next injection cycle by one pulse of 10 mM glycine/HCl pH 1.5 for 120 s at 40 μL/min. Blank-subtracted sensorgrams were analyzed and fit to the 1:1 Langmuir binding model using Biacore™ T200 Evaluation Software v3.2.
A Kd of 0.0137 µM was found for B1 in this work.
A Kd of 0.0149 µM was found for B2 in this work.
A Kd of 0.0104 µM was found for B3 in this work.
A Kd of 0.0125 µM was found for B4 in this work.
A Kd of 0.0199 µM was found for B5 in this work.
A Kd of 0.0119 µM was found for B6 in this work.
A Kd of 0.0227 µM was found for B7 in this work.
A Kd of 0.0103 µM was found for B8 in this work.
A Kd of 0.0113 µM was found for B9 in this work.
A Kd of 0.0106 µM was found for B10 in this work.
A Kd of 0.021 µM was found for B11 in this work.
A Kd of 0.0115 µM was found for B12 in this work.

The binders below were run against T1, recombinant human GPC3 (glypican-3) (assay: SPR (Biacore T200), antibody captured by anti-Fc, GPC3 injected).
Experimental: as §1, §2
In the case of B1, the “Avg % binding huGPC3 (RU observed/theoretical)” value is reported as 44.1%.
With B2 the “Avg % binding huGPC3 (RU observed/theoretical)” value was 43%.
B3 was tested, and the “Avg % binding huGPC3 (RU observed/theoretical)” value was 43.5%.
In the case of B4, the “Avg % binding huGPC3 (RU observed/theoretical)” value is reported as 42.5%.
For B5, the “Avg % binding huGPC3 (RU observed/theoretical)” value was 21.3%.
With B6 the “Avg % binding huGPC3 (RU observed/theoretical)” value was 42%.
For B7, the “Avg % binding huGPC3 (RU observed/theoretical)” value was 14.9%.
B8 was tested, and the “Avg % binding huGPC3 (RU observed/theoretical)” value was 42.8%.
For B9, the “Avg % binding huGPC3 (RU observed/theoretical)” value was 43.6%.
In the case of B10, the “Avg % binding huGPC3 (RU observed/theoretical)” value is reported as 46.3%.
B11 was tested, and the “Avg % binding huGPC3 (RU observed/theoretical)” value was 23.4%.
For B12, the “Avg % binding huGPC3 (RU observed/theoretical)” value was 42.2%.

What follows are binders tested against T2, recombinant cynomolgus GPC3 (glypican-3) (cynomolgus monkey, UniProt A0A2K5VK50 24-558) (assay: SPR (Biacore T200), antibody captured by anti-Fc, GPC3 injected, single-cycle kinetics, 1:1 fit; average).
T2 construct: also called cynoGPC3
Experimental: as §1, §2
A Kd of 0.0115 µM was found for B1 in this work.
A Kd of 0.0125 µM was found for B2 in this work.
A Kd of 0.00879 µM was found for B3 in this work.
A Kd of 0.00778 µM was found for B4 in this work.
A Kd of 0.0164 µM was found for B5 in this work.
A Kd of 0.00767 µM was found for B6 in this work.
A Kd of 0.0166 µM was found for B7 in this work.
A Kd of 0.00658 µM was found for B8 in this work.
A Kd of 0.00743 µM was found for B9 in this work.
A Kd of 0.00718 µM was found for B10 in this work.
A Kd of 0.0185 µM was found for B11 in this work.
A Kd of 0.00729 µM was found for B12 in this work.

Each binder was assayed against T2, recombinant cynomolgus GPC3 (glypican-3) (assay: SPR; Kd on human GPC3 divided by Kd on cynomolgus GPC3).
Experimental: as §1, §2
With B1 the “Kd Fold difference (hu/cyno)” value was 1.2 fold.
With B2 the “Kd Fold difference (hu/cyno)” value was 1.19 fold.
For B3, the “Kd Fold difference (hu/cyno)” value was 1.19 fold.
B4 was tested, and the “Kd Fold difference (hu/cyno)” value was 1.61 fold.
B5 was tested, and the “Kd Fold difference (hu/cyno)” value was 1.21 fold.
B6 was tested, and the “Kd Fold difference (hu/cyno)” value was 1.55 fold.
For B7, the “Kd Fold difference (hu/cyno)” value was 1.37 fold.
With B8 the “Kd Fold difference (hu/cyno)” value was 1.56 fold.
In the case of B9, the “Kd Fold difference (hu/cyno)” value is reported as 1.53 fold.
In the case of B10, the “Kd Fold difference (hu/cyno)” value is reported as 1.48 fold.
With B11 the “Kd Fold difference (hu/cyno)” value was 1.13 fold.
With B12 the “Kd Fold difference (hu/cyno)” value was 1.58 fold.
